The results in this text go back to article PMC11094025.

In assay [1] the target is GST-VAPB-MSP (wild-type MSP-domain of VAPB fused to a GST-tag) (UniProt O95292). The assay is described as follows: peptide pull-down of purified protein, Coomassie gel quantification. The conditions noted are these: parent: est. 1.0; read off a plot.
For assay [2], the target named is VAPB (Vesicle-Associated-membrane Protein-associated protein B), endogenous (UniProt O95292). Put plainly: peptide pull-down from total HeLa cell lysate, Western blot quantification. The conditions noted are these: parent: est. 1.0; read off a plot.

Regarding “ELYS FFAT-2 peptide, non-phosphorylated S1314A; S1326A”, the ratio to parent came out at 1.1 in assay [1] and 0.5 in assay [2].
